This passage reports Kd results from patent publication CN116003603A.

Test [1] deals with CLDN18.2 (antigen of the ka/kd/KD measurement, species and form not stated). The test is described as follows: affinity measurement, method not described.
For test [2] the target is unchanged. Briefly: affinity measurement, method not described (Table 2-2).

In general, Kd refers to the constant that tells how readily two partners part at equilibrium. With IMAB362 (antibody), the Kd in test [1] and in test [2] was 4.17 nM in each case.
